Where “and” joins values, the source holds several entries; their conditions need not be identical. Equal values may be shown once.
Key:
[1] = target: the molecule itself; experiment: spatial intensity distribution analysis (SpIDA) of confocal images; basolateral membrane of intact cells induced with varying doxycycline, not treated with ligand (also vehicle, and after washout of antagonists with 60 min recovery); one-population model; QB against monomeric P-M-A206K eGFP
[2] = target: the molecule itself; experiment: spatial intensity distribution analysis (SpIDA) of confocal images; basolateral membrane of intact cells treated with antagonist for 90 min at 37 °C (SB242084 50 nM, SB243213 50 nM or RS102221 100 nM); one-population model; QB against monomeric P-M-A206K eGFP

B1: human 5-HT2C receptor fused at its carboxyl terminus to A206K eGFP (5-HT2C-A206K eGFP) (receptor, UniProt P28335 33-458, looked up)
chain: IVTDIFNTSDGGRFKFPDGVQNWPALSIVIIIIMTIGGNILVIMAVSMEKKLHNATNYFLMSLAIADMLVGLLVMPLSLLAILYDYVWPLPRYLCPVWISLDVLFSTASIMHLCAISLDRYVAIRNPIEHSRFNSRTKAIMKIAIVWAISIGVSVPIPVIGLRDEEKVFVNNTTCVLNDPNFVLIGSFVAFFIPLTIMVITYCLTIYVLRRQALMLLHGHTEEPPGLSLDFLKCCKRNTAEEENSANPNQDQNARRRKKKERRPRGTMQAINNERKASKVLGIVFFVFLIMWCPFFITNILSVLCEKSCNQKLMEKLLNVFVWIGYVCSGINPLVYTLFNKIYRRAFSNYLRCNYKVEKKPPVRQIPRVAATALSGRELNVNIYRHTNEPVIEKASDNEPGIEMQVENLELPVNPSSVVSERISSV
notes: serotonin 5-hydroxytryptamine 2C (5-HT2C) receptor, human; construct in pEGFPN1, a gift of Dr. K. Herrick-Davis, subcloned into pcDNA5/FRT/TO; also called 5-HT2C-eGFP; serotonin 5-hydroxytryptamine 2C receptor; not shown: A206K eGFP, C-terminal, kept
- average quantal brightness relative to monomeric P-M-A206K eGFP [1]: 1.85 times
- stoichiometry N [1]: 2 and 4
- average quantal brightness relative to monomeric P-M-A206K eGFP, after SB242084 (50 nM, 90 min) [2]: 1.46 fold

Source: article PMC4432300, “Regulation of Oligomeric Organization of the Serotonin 5-Hydroxytryptamine 2C (5-HT2C) Receptor Observed by Spatial Intensity Distribution Analysis*” (The Journal of Biological Chemistry, 2015)
